# In US20180280504A1, “GLYCAN-INTERACTING COMPOUNDS AND METHODS OF USE” (SIAMAB THERAPEUTICS, INC., priority 2014, published 2018):
# Key:
# E3-STn tumors = assay: E3-STn allograft model, second round study, tumor volume; assay type: in vivo, mouse; settings: for Average Tumor Volume: 25 mg/kg i.p. twice weekly
# Source text: Standard deviation values are listed in parenthesis.
# [1] = E3-STn allograft model, average weight of mice; assay type: in vivo, mouse
# Method: Balb/c mice were used as part of the test system. 50 female mice were inoculated with E3-STn cells to cause STn-expressing tumor formation. Mice were maintained under pathogen-free conditions with irradiated feed and autoclaved water.
# The average weight of mice in each treatment group was also determined on days 1, 4, 6, 8, 11, 13, 15, 18, 20, 22, 26, 27, 29, 32, 34, 36, 39 and 41 following the first administration of each test article (see the following Table). The percent gain or loss over initial weight values is listed in parentheses.
# [2] = E3-STn allograft model, pathological evaluation of H&E stained organs; assay type: in vivo, mouse; settings: 5 treated mice
# Method: At the end of the study described in Example 22, three mice from the vehicle control group and five mice that received 7G9-1A8 were chosen at random for post-study pathology assessment. Brain, colon, intestine, heart, kidney, liver, lung, mandibular salivary gland, pancreas, spleen, stomach, adrenal gland and thyroid gland organs were collected from each mouse. The organs were fixed in formalin (VWR; Radnor, Pa.) for about 48 hours, transferred to 70% ethanol (Sigma-Aldrich; St.Louis, Mo.), and then processed for standard H&E staining.
# The H&E stained tissue slides were examined for pathology review. Liver sections from each animal had multifocal inflammation with or without concomitant hepatocellular necrosis. The histo-pathological changes were minimal to mild in severity. There was no appreciable difference in the morphology of lesions among vehicle control group mice and mice that received 7G9-1A8.
# [3] = E3-STn allograft model, second round study, average body weight
# Method: 50 female Balb/cmice were inoculated with E3-STn cells to cause STn-expressing tumor formation when they were 5 weeks old. Mice were housed in individually ventilated microisolator cages, and maintained under pathogen-free conditions with irradiated feed and autoclaved water. […] Beginning on the first day of the study, body weight and tumor volumes were recorded twice weekly. 33 mice with mean tumor volume between 100 and 150 mm^3 were selected for randomization.
# The average weight of mice in each treatment group was also determined on days 1, 5, 8, 12, 15,19, 22, 26, 29, 33, 36, 40, 43, 47 and 50 following the first administration of each test article (see the following Table). The percent gain or loss over initial weight values is listed in parentheses.
# [4] = system: COLO-205 Human Colon Adenocarcinoma Tumor Xenograft; assay: COLO-205 xenograft model, clinical observations; assay type: in vivo, mouse; settings: 5 mg/kg i.p. once weekly
# Method: Animals were inoculated in the subcutaneous right flank with 5×10^6 colon adenocarcinoma tumor cells (COLO-205) in matrigel, mean tumor size was 175-225 mm^3 at study initiation. Animals were given either vehicle or one of the antibody drug conjugates (5 mg/kg) by intraperitoneal injection once weekly. Tumor volume and percent body weight change were determined once weekly until study termination. The study was terminated when the tumor in the vehicle control animal reached a mean tumor weight >1500 mm^3. SE refers to “standard error.”
# (§1) Clinical observations of tumor shape, size and disposition were noted throughout the study.
# [5] = system: MDA-MB-231-STn Human Breast Tumor Xenograft; assay: MDA-MB-231-STn xenograft model, clinical observations of tumors; assay type: in vivo, mouse; settings: 5 mg/kg i.p. once weekly
# Method: Animals were inoculated in the subcutaneous right flank with 5×10^6 breast tumor cells (MDA-MB-231-STn) in matrigel, mean tumor size was 175-225 mm^3 at study initiation. Animals were given either vehicle or antibody drug conjugates (5 mg/kg) by intraperitoneal injection once weekly. Tumor volume and percent body weight change were determined once weekly until study termination. The study was terminated when the tumor in the vehicle control animal reached a mean tumor weight ≥1500 mm^3. SE refers to “standard error.”
# as §1
# [6] = PAA-glycan ELISA, GcSTn-PAA; assay type: binding; settings: 200 ng/well PAA antigen; 1:5 dilutions from 1 μM
# Method: (§2) 18D2 and 18C7 antibodies were further characterized by ELISA comprising antigens other than BSM. ELISAs were carried out according to Example 2, with the exception that ELISA plates were coated with biotinylated polyacrylamide (PAA) particles comprising either AcSTn (AcSTn-PAA), GcSTn (GcSTn-PAA) or Tn (Tn-PAA) as antigens. These particles present the antigens in a multivalent format. Briefly, 96-well ELISA plates were coated with 200 ng/well of each PAA antigen and blocked with PBS with 1% OVA. Antibodies were serially diluted at 1:5 in PBS with 1% OVA using an initial concentration of 1 μM. After blocking, antibodies were added to the plates and plates were incubated for 1.5 hours at room temperature. Binding of anti-STn antibodies was detected using a goat anti-mouse IgG-HRP conjugated antibody (Jackson Immunoresearch Laboratories, West Grove, Pa.). The reaction was developed by addition of HRP substrate and hydrogen peroxide. The reaction was then stopped by the addition of sulfuric acid (1.6 M). Optical densities were measured at 490 nm. A dose-response curve was generated using readings at each concentration tested and a non-linear regression curve was generated with four-parameter modeling to determine EC50 values for each antibody.
# [7] = PAA-glycan ELISA, AcSTn-PAA; assay type: binding; settings: 200 ng/well PAA antigen; 1:5 dilutions from 1 μM
# Method: as §2
molecule,measurement,setting,value
"7G9: anti-STn mouse monoclonal, IgG2b κ, from mouse #4407; VH SEQ ID NO: 12, VL SEQ ID NO: 9 (antibody, V domains shown) VH: QVQLKESGPGLVAPSQNLSITCTVSGFSLTSYGVNWVRQPPGKGLEWLGVIWGDGSTNYHSALISRLIISKENSKSQVFLKLNSLQTNDTATYYCTKGFVYWGQGTLVTVSA VL: QIVLTQSPAIMSASPGEKVTMTCSASSSVSYMHWYQQKSGTSPKRWIFDTSKLASGVPARFSGSGSGTSYSLTISSMEAEDAATYYCQQWSSNLLTFGAGTKLELK",Average Tumor Volume,E3-STn tumors; day 1 of treatment,125.9 mm^3
same,Average Tumor Volume,E3-STn tumors; day 5 of treatment,135.2 mm^3
same,Average Tumor Volume,E3-STn tumors; day 8 of treatment,144.5 mm^3
same,Average Tumor Volume,E3-STn tumors; day 12 of treatment,157.2 mm^3
same,Average Tumor Volume,E3-STn tumors; day 15 of treatment,169.2 mm^3
same,Average Tumor Volume,E3-STn tumors; day 19 of treatment,178.0 mm^3
same,Average Tumor Volume,E3-STn tumors; day 22 of treatment,186.4 mm^3
same,Average Tumor Volume,E3-STn tumors; day 26 of treatment,195.9 mm^3
same,Average Tumor Volume,E3-STn tumors; day 29 of treatment,199.4 mm^3
same,Average Tumor Volume,E3-STn tumors; day 33 of treatment,201.5 mm^3
same,Average Tumor Volume,E3-STn tumors; day 36 of treatment,206.5 mm^3
same,Average Tumor Volume,E3-STn tumors; day 40 of treatment,212.9 mm^3
same,Average Tumor Volume,E3-STn tumors; day 43 of treatment,243.7 mm^3
same,Average Tumor Volume,E3-STn tumors; day 47 of treatment,277.5 mm^3
same,Average Tumor Volume,E3-STn tumors; day 50 of treatment,313.4 mm^3
same,average tumor volumes as compared to vehicle control,"E3-STn tumors; second round study, 25 mg/kg i.p. twice weekly for 7 weeks",greatly reduced
same,Average Weight,[1]; day 1 of study,17.1 g
same,Average Weight,[1]; day 4 of study,17.3 g
same,percent gain or loss over initial weight,[1]; day 4 of study,(1.7) %
same,Average Weight,[1]; day 6 of study,18.2 g
same,percent gain or loss over initial weight,[1]; day 6 of study,(6.9) %
same,Average Weight,[1]; day 8 of study,18.2 g
same,percent gain or loss over initial weight,[1]; day 8 of study,(6.5) %
same,Average Weight,[1]; day 11 of study,18.3 g
same,percent gain or loss over initial weight,[1]; day 11 of study,(7.3) %
same,Average Weight,[1]; day 13 of study,18.6 g
same,percent gain or loss over initial weight,[1]; day 13 of study,(8.9) %
same,Average Weight,[1]; day 15 of study,18.7 g
same,percent gain or loss over initial weight,[1]; day 15 of study,(9.9) %
same,Average Weight,[1]; day 18 of study,18.6 g
same,percent gain or loss over initial weight,[1]; day 18 of study,(9.0) %
same,Average Weight,[1]; day 20 of study,18.9 g
same,percent gain or loss over initial weight,[1]; day 20 of study,(10.8) %
same,Average Weight,[1]; day 22 of study,18.9 g
same,percent gain or loss over initial weight,[1]; day 22 of study,(11.1) %
same,Average Weight,[1]; day 26 of study,19.0 g
same,percent gain or loss over initial weight,[1]; day 26 of study,(11.7) %
same,Average Weight,[1]; day 27 of study,19.1 g
same,percent gain or loss over initial weight,[1]; day 27 of study,(11.9) %
same,Average Weight,[1]; day 29 of study,19.4 g
same,percent gain or loss over initial weight,[1]; day 29 of study,(14.0) %
same,Average Weight,[1]; day 32 of study,19.2 g
same,percent gain or loss over initial weight,[1]; day 32 of study,(12.6) %
same,Average Weight,[1]; day 34 of study,19.5 g
same,percent gain or loss over initial weight,[1]; day 34 of study,(14.2) %
same,Average Weight,[1]; day 36 of study,19.6 g
same,percent gain or loss over initial weight,[1]; day 36 of study,(14.8) %
same,Average Weight,[1]; day 39 of study,20.2 g
same,percent gain or loss over initial weight,[1]; day 39 of study,(18.7) %
same,Average Weight,[1]; day 41 of study,20.3 g
same,percent gain or loss over initial weight,[1]; day 41 of study,(19.2) %
same,percent gain in weight as compared to Paclitaxel and vehicle control,[1]; over the course of treatment,higher percent gain in weight
same,epicardial inflammation,[2],not observed
same,neutrophil aggregates in the muscularis mucosa of the stomach,[2],not observed
same,"liver histopathology (multifocal inflammation, hepatocellular necrosis) vs vehicle control",[2]; 3 vehicle mice,no significant difference between the groups
same,Average Weight,[3]; day 1 of study,18.3 g
same,Average Weight,[3]; day 5 of study,18.7 g
same,percent gain or loss over initial weight,[3]; day 5 of study,(2.4) %
same,Average Weight,[3]; day 8 of study,19.4 g
same,percent gain or loss over initial weight,[3]; day 8 of study,(6.5) %
same,Average Weight,[3]; day 12 of study,20.1 g
same,percent gain or loss over initial weight,[3]; day 12 of study,(10.1) %
same,Average Weight,[3]; day 15 of study,20.4 g
same,percent gain or loss over initial weight,[3]; day 15 of study,(12.0) %
same,Average Weight,[3]; day 19 of study,20.9 g
same,percent gain or loss over initial weight,[3]; day 19 of study,(14.3) %
same,Average Weight,[3]; day 22 of study,20.8 g
same,percent gain or loss over initial weight,[3]; day 22 of study,(14.1) %
same,Average Weight,[3]; day 26 of study,21.5 g
same,percent gain or loss over initial weight,[3]; day 26 of study,(17.8) %
same,Average Weight,[3]; day 29 of study,22.1 g
same,percent gain or loss over initial weight,[3]; day 29 of study,(21.1) %
same,Average Weight,[3]; day 33 of study,22.2 g
same,percent gain or loss over initial weight,[3]; day 33 of study,(21.4) %
same,Average Weight,[3]; day 36 of study,22.1 g
same,percent gain or loss over initial weight,[3]; day 36 of study,(21.0) %
same,Average Weight,[3]; day 40 of study,22.8 g
same,percent gain or loss over initial weight,[3]; day 40 of study,(25.0) %
same,Average Weight,[3]; day 43 of study,22.9 g
same,percent gain or loss over initial weight,[3]; day 43 of study,(25.4) %
same,Average Weight,[3]; day 47 of study,22.8 g
same,percent gain or loss over initial weight,[3]; day 47 of study,(25.0) %
same,Average Weight,[3]; day 50 of study,23.8 g
same,percent gain or loss over initial weight,[3]; day 50 of study,(30.2) %
same,percent gain in weight as compared to vehicle control,[3]; second round study,higher percent gain in weight
"S3F: 3F1 variable domains combined with IgG2a constant domains; heavy chain SEQ ID NO: 63, light chain SEQ ID NO: 64 (antibody) heavy: QVQLQQSDAELVKPGASVKISCKASGYTFTDHAIHWVKQKPEQGLDWIGYISPGNGDIKYNEKFKDKVTLTADKSSSTACMHLNSLTSEDSAVYFCKRSLLALDYWGQGTTLTVSSAKTTAPSVYPLAPVCGDTTGSSVTLGCLVKGYFPEPVTLTWNSGSLSSGVHTFPAVLQSDLYTLSSSVTVTSSTWPSQSITCNVAHPASSTKVDKKIEPRGPTIKPCPPCKCPAPNLLGGPSVFIFPPKIKDVLMISLSPIVTCVVVDVSEDDPDVQISWFVNNVEVHTAQTQTHREDYNSTLRVVSALPIQHQDWMSGKEFKCKVNNKDLPAPIERTISKPKGSVRAPQVYVLPPPEEEMTKKQVTLTCMVTDFMPEDIYVEWTNNGKTELNYKNTEPVLDSDGSYFMYSKLRVEKKNWVERNSYSCSVVHEGLHNHHTTKSFSRTPGK light: DIVMTQSHKFMSTSVGDRVSITCKASQDVGTNIAWYQQKPGRSPKVLIYSASTRHTGVPDRFTGSGSGTDFTLTISNVQSEDLTDYFCQQYSSFPLTFGVGTKLELKRADAAPTVSIFPPSSEQLTSGGASVVCFLNNFYPKDINVKWKIDGSERQNGVLNSWTDQDSKDSTYSMSSTLTLTKDEYERHNSYTCEATHKTSTSPIVKSFNRNEC",clinical observations of tumors and signs of illness,[4],necrosing tumors ranging in severity from slight to severe
same,"clinical observations of tumor shape, size and disposition",[5],fewer severe tumors with fluid secretion
"18C7: anti-STn mouse monoclonal, IgG2c κ, from mouse #4436; VH SEQ ID NO: 4, VL SEQ ID NO: 5 (antibody, V domains shown) VH: QVTLKESGPGILQPSQTLSLTCSFSGFSLSTFGMGVGWIRQPSGKGLEWLAHIWWDDDKYYNPALKSRLTISKDTSKNQVFLKIANVDTADTATYYCARIAYYYGSERDYWGQGTTLTVSS VL: QIVLTQSPAIMSASPGEKVTMTCSASSSISYMHWYHQKPGTSPKRWIYDTSKLASGVPARFSGSGSGTSYSLTISSMEAEDAATYYCHQRSSYTFGGGTKLEIKR",EC50,[6],2.59 nM
same,EC50,[7],4.1 nM
